Assay results taken from patent publication US20040001842A1.

Columns and labels:
[1] = target: CCK-B/gastrin receptor on AR42J cells (rat pancreatic adenocarcinoma) (rat) (UniProt P30553); experiment: radioligand inhibition on AR42J cells, GnRH against 125I-hG17
[2] = target: human CCK-B/gastrin receptor (human) (UniProt P32239); experiment: 125I-labelled serum injected into nude mice with C170HM2 liver xenografts, CPM/g
[3] = target: Affinity purified rabbit anti-GRE1 antibodies; experiment: inhibition ELISA, mixture of GRE1 EPT and Ser spacer in solution against GRE1-Ser-BSA on the plate
[4] = target: affinity purified rabbit Anti-GRE11 antibodies; experiment: quantitative immunofluorescence on H69 cells, peptide as inhibitor, relative to GnRH
[5] = target: affinity purified rabbit Anti-GRE11 antibodies; experiment: quantitative immunofluorescence on H69 cells, 1:1 mixture of GRE1 and GRE6 as inhibitor, relative to GnRH
[6] = target: Affinity purified rabbit anti-GRE1 antibodies; experiment: inhibition ELISA, peptide in solution against GRE1-Ser-BSA on the plate

UniProt P30553, sequence (P30553 whole entry): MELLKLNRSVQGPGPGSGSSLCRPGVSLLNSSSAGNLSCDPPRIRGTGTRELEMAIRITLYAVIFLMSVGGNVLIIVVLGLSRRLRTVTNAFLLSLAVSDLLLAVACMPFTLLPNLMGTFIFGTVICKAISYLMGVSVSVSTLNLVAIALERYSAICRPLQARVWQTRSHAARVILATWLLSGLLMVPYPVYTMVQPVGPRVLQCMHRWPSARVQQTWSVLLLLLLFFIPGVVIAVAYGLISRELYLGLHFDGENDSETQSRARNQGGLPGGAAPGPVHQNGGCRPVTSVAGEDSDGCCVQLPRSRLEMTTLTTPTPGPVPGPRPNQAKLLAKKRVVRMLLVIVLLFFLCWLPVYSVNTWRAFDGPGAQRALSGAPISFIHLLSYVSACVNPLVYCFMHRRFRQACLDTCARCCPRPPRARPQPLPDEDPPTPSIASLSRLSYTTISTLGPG

gonadotropin releasing hormone (from UniProt P01148 24-33) (peptide)
% inhibition of 125I-hG17 binding [1]: 6%

normal rabbit serum
liver tumor/liver ratio of radiolabel [2]: 1

KLNRSVQGTGPGPGASL [GRE1 EPT peptide]
% inhibition [3]: 60%
percent inhibition of antibody binding [4]: 57%
percent inhibition of antibody binding [5]: 49%
% inhibition [6]: 60%

MELLKLNRSVQGTGPGPGASLC [GRE11 peptide]
percent inhibition of antibody binding [4]: 84%

MELLKLNRSVQGC [GRE6 peptide]
percent inhibition of antibody binding [4]: 4%
